Patent US12460006B2, “Antibodies against integrin alpha 11 beta 1” (Momenta Pharmaceuticals, Inc., priority 2019, dated 2025)
Residue numbers refer to the chain shown, from its start. “Also recorded” adds a separate entry of the source.

B1: 8-I14: mouse anti-α11β1 mAb; VH SEQ ID NO: 109, VL SEQ ID NO: 110 (antibody, V domains shown)
VH: EVQLQQSGPELVKPGASVKKSCKASGYTFTDYYMHWVKQKPGQGLEWIGKIYPGSGNTHYNEKFKGKATLTADKSSSTAYMQLSSLTSEDSAVYFCATNYYGYRAMNYWGQGSSVTVSS
VL: DIHLTQSPSSLSASLGERISLTCRASQDIYISLNWFQQKPDGTIKLLIYGTSSLDSGVPKRFSGSRSGSDYSLTISSLESEDFADYYCLQYASSPYTFGGGTKLEIK
B2: 8H8E9: rat anti-α11β1 mAb; VH SEQ ID NO: 149, VL SEQ ID NO: 150 (antibody, V domains shown)
VH: MAVLVLLLCLVTFPSCALSQVQLKESGPGLVQPSQTLSLTCTVSGFSLTSNSVSWVRQAPGKGLEWMGAIWSGGSTDYNSALKSRLSISRDTSKSQVFLKMNSLQTEDTAIYFCTRSHWEPFDYWGQGVMVTVSS
VL: MESQTQALISLLLWVYGTCGDIVMTQSPFSLAVSEGEMVTINCKSSQGLLSSGNQKNYLAWYQQRPGQSPKLLIYYASTRQSGVPDRFIGGGSGTDFTLTISDVQAEDLADYYCLQHYSYPPTFGSGTKLEIK
B3: 6E5C11: rat anti-α11β1 mAb; VH SEQ ID NO: 151, VL SEQ ID NO: 152 (antibody, V domains shown)
VH: B2 VH with K24R, S54T, A59P, G73D, A81T, N102S
VL: B2 VL with F29L, M38T, I41M, G48S, L50F, R65K, G91S, A106T, S119N
B4: 79E3E3: rat anti-α11β1 mAb; VH SEQ ID NO: 145, VL SEQ ID NO: 146 (antibody, V domains shown)
VH: MDWLWNLLFLMVVAQSAQAQIQLVQSGPEVKKPGESVKISCKASGYTFTDYAMNWVKQAPGNGLKWMGWINTQTGKPTYADDFKQRFVFSLETSARTTYLQINNLNIEDTATYFCTRLGTGNTKGFAYWGQGTLVTVSS
VL: MESQTHVLISLLLCVSGTCGDILINQSPASLTVSAGERVTMSCKSSQSLLYSENNQDYLAWYQQKPGQFPKLLIYGASNRHTGVPDRFTGSGSGTDFTLTISSVQAEDLADYYCEQTYRYPFTFGSGTKLEIK
B5: 18E10F10: rat anti-α11β1 mAb; VH SEQ ID NO: 155, VL SEQ ID NO: 156 (antibody, V domains shown)
VH: MDIRLSLVFLVLFMKGVQCEVQLVESGGGLVQPGRSLKLSCAASRFTFSDYNMAWVRQAPKKGLEWVATIYHDDSGSYYRDSVKGRFTISRNNAKSTLYLQMDSLRSEDMATYYCARHNNGFDYWGQGVMVTVAS
VL: MKWPVRLLVLFFWIPASGGDVVMTQTPVSLPVRLGGQASISCRSSQSLVHSNGNTYLHWYLQKPGQSPQLLINRVSNRFSGVPDRFSGSGSGTDFTLKINRVEPEDLGDYYCLQSTHFPLTFGSGTKLETK
B6: 8-P20: mouse anti-α11β1 mAb; VH SEQ ID NO: 105, VL SEQ ID NO: 106 (antibody, V domains shown)
VH: KVMLVESGGALVKPGGSLKLSCVASGFTFSNYAMSWVRQTPEKRLEWVATISSGGYYTYYPDSVKGRFTISRDNARNTLFLQMSSLRSEDTAMFYCAREDDYGRYSYTMDYWGQGTSVTVSS
VL: DVVMTQTPLSLPVSLGDQVSISCRCSQSLVHSNGNTYLHWYLQKPGQSPQLLIYKISNRFSGVPDRFSGSGSGTDFTLKISRVEAEDLGVYFCSQSTHVPYTFGGGTELEIK
B7: 8-J17: mouse anti-α11β1 mAb; VH SEQ ID NO: 113, VL SEQ ID NO: 114 (antibody, V domains shown)
VH: QVQLQQSGAELAKPGASVKMSCKASGYTFTNYWMHWVKQRPGQGLEWIGYINPNNGYTEYNQRFKDKATLTADRSSTTAYMQLSSLTSEDSAVYYCARSDIITTDYWGQGTTLTVSS
VL: B6 VL with V19A, C25S, H31Y, Q50K, I56V, Y101W, E108K
B8: 40G10H11: rat anti-α11β1 mAb; VH SEQ ID NO: 157, VL SEQ ID NO: 158 (antibody, V domains shown)
VH: MDIRLSLGFLVLFIKGDQCAVQLVESGGGLVQPGRSLKLSCAASRITFTDYYMAWVRQAPTKGLEWVATISSDGGDTFYRDSVKGRFTISRDNAKSTLYLQMVSLRSEDTATYYCSTDRGAQFGYWGQGTLVTVSS
VL: MAPVQLLGLLLIWLPAMRCDIQMTQSPSFLSASVGDRVSINCKASQNVHENLNWYQQKLGEAPKRLIYNTNNLQTGIPSRFSGSGSGADYTLTISSLQPEDFATYFCLQHNAFPYTFGPGTKLELK

How the values were obtained:
human α11β1 = human α11β1 (Homo sapiens, UniProt Q9UKX5); experiment: ELISA binding to recombinant human α11β1; details: binding Yes/No
Procedure: (§1) 0.25 μg/mL of target antigen (recombinant human or mouse α11β1) was plated in a 96-well plate over night at 4° C. Plates were washed (PBS with 0.1% Tween-20), blocked (PBS with 2% BSA and 0.05% Tween-20) for 1 hour at room temperature and incubated with a range of antibody concentrations for 1 hour at room temperature. Subsequently, plates were washed and incubated with biotinylated anti-rabbit/mouse/human IgG in a 1:1000 dilution buffer and incubated for 1 hour at room temperature. After washing the plates, Streptavidin HRP was added at 1:200 in dilution buffer and incubated for 1 hour at room temperature. Ultra TMB ELISA substrate solution was added and the plates incubated for 5 minutes on a plate shaker. The reaction was stopped by adding stop solution to each well and plates were read at 450 nm.

mouse α11β1 = mouse α11β1 (Mus musculus, UniProt P61622); experiment: ELISA binding to recombinant mouse α11β1; details: for Murine α11β1 ELISA: binding Yes/No
Procedure: as §1

[1] = test system: CHO-K1 cells expressing human α11; experiment: Cell adhesion inhibition (xCelligence), type I collagen; format: cell-based; details: for Inhibition of CHO-K1 adhesion to collagen: Yes/No; for inhibition of cell adhesion to type I collagen: CHO-K1 hu α11 cells
Procedure: 0.6×10^6 cells/mL were incubated with each antibody at a range of concentrations for 20 minutes at 37° C. E-Plate VIEW 96 PET plate coated with 100 ng/mL type I collagen or PBS overnight at room temperature was blocked in 3% BSA for 1 house at room temperature. After washing the plate with PBS, cell and antibody mixture was added to the wells and the plate was places into an xCelligence machine. Cell adhesion was recorded over 6 hours. The time point of maximum cell adhesion was used for comparison relative to control.
A CHO-K1 hu α11 cell line was used to assess the ability of mAbs to block α11β1-mediated binding to type I collagen. […] In the “Untreated” condition, cells were plated on type I collagen but no antibody was added and in the “Uncoated” condition, cells were seeded onto BSA-coated wells containing no type I collagen. Statistics were performed using one-way ANOVA followed by Dunnett's multiple comparisons test. […] Therefore, it is possible that these mAbs bind on an α11β1 domain that keeps the integrin in a low or intermediate affinity state. […] Nine human mAbs were also tested for their ability to inhibit the binding of human CHO-α11 cells to type I collagen.

myofibroblasts (MF) = experiment: FACS antibody binding to myofibroblasts; parameters: species or system human; details: binding Yes/No
Procedure: (§2) Human Pulmonary Fibroblasts (ScienCell) were cultured in complete Fibroblast Growth Medium (ScienCell) until 80% confluent in T-150 flasks. Cells were washed and harvested using Accutase. Cells were seeded into T-150 flasks at 7,500 cells/cm^2 in complete FGF and cultured for 72 hours. Cells were then washed and starved in serum reduced medium for 24 hours. After starvation, cells were treated with TGFβ-1 (R&D Systems) for 72 hours. Cells were harvested using Accutase and seeded in 96-well conical bottom plates. Cells were blocked with Heat Inactived Fetal Bovine Serum (Gibco) for 30 minutes at 4° C. Cells were then incubated with anti-α11 antibodies at the doses described in each figure for 30 minutes at 4° C. A human anti-α11 antibody (Creative BioLabs) was included as a positive control as well as the appropriate IgG isotype negative controls. Cells were washed twice and incubated with PE conjugated secondary antibodies specific to the IgG class of the anti-α11 antibodies being tested for 30 minutes at 4° C. Cells were washed twice and fixed in 1% PFA for 30 minutes. Cells were acquired on a FACS Verse […]. Data were analyzed by gating on single cells and determining the geometric Mean Fluorescence Intensity (gMFI) in the PE channel for each sample.
(§3) Binding to a physiologically relevant primary human cell type was also tested. Human pulmonary fibroblasts (HPF) and TGFβ treatment were used to induce a fibroblast-to-myofibroblast transition (FMT), giving rise to myofibroblasts (MF). […] Additionally, HPFs express α11 and α2β1, other collagen binding receptors, which means that HPFs can be to test cross-reactivity of antibodies of interest.

[2] = test system: human pulmonary fibroblasts (HPFs); experiment: FACS antibody binding to human pulmonary fibroblasts; details: binding Yes/No
Procedure: as §2, §3

I domain of α11β1 = target: T1, I domain of α11β1 (Homo sapiens, UniProt Q9UKX5); experiment: ELISA binding to in-house generated I domain of α11β1; details: for I Domain binding: Yes/No; for binding to I domain of α11β1 (high, medium, low): ELISA
T1 construct: An in-house generated I domain of α11β1 was used; made in house
T1 sequence (Q9UKX5 164-345 limits assumed): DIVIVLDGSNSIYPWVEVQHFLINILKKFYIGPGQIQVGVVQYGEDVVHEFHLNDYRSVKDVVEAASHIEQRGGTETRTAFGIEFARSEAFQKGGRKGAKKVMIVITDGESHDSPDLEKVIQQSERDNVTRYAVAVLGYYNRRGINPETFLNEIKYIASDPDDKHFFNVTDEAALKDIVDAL
Procedure: as §1
22 Data was also collected to determine whether antibodies of interest bind to the I domain of α11β1. An in-house generated I domain of α11β1 was used. […] Mouse antibodies 10-F23, 10-L15, 7-O8, 6-A12, 9-G05 and 9-E16 and rabbit antibodies 7-H12 and 2-D3 were also tested for binding against the in-house generated α11031 domain. FIGS. 3A and 3B show graphs illustrating binding data from exemplary mAbs.

Chain of human α11β1 (Q9UKX5 23-1141 limits assumed): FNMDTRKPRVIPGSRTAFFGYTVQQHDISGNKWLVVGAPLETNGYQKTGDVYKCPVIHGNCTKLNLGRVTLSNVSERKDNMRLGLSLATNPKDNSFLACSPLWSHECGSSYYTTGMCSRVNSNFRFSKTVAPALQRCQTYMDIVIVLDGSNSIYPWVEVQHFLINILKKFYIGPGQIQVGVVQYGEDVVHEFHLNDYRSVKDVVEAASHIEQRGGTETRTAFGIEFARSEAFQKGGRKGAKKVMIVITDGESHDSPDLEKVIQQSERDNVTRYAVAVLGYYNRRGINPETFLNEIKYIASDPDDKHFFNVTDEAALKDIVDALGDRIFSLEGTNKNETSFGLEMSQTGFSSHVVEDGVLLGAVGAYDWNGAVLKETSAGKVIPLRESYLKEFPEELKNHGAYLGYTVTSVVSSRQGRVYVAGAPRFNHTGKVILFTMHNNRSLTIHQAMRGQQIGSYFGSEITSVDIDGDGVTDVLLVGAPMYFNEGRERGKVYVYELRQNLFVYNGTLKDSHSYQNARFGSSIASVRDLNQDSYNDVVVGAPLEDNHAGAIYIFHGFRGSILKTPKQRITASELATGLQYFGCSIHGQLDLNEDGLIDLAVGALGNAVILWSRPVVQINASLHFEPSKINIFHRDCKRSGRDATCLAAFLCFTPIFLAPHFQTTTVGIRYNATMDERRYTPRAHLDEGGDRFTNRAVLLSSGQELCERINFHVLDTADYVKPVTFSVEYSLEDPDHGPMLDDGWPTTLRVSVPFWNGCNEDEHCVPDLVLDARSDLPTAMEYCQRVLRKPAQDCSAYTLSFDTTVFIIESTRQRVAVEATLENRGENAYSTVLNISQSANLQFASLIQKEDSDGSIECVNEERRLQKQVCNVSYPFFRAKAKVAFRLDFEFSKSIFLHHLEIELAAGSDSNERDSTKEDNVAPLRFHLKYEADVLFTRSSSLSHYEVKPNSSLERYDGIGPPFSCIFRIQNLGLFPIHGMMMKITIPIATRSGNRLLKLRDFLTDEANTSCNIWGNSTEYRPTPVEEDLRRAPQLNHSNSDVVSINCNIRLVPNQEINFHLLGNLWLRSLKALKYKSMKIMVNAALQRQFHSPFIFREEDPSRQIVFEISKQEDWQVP
Chain of human α11β1 (P05556 21-728 partner limits assumed): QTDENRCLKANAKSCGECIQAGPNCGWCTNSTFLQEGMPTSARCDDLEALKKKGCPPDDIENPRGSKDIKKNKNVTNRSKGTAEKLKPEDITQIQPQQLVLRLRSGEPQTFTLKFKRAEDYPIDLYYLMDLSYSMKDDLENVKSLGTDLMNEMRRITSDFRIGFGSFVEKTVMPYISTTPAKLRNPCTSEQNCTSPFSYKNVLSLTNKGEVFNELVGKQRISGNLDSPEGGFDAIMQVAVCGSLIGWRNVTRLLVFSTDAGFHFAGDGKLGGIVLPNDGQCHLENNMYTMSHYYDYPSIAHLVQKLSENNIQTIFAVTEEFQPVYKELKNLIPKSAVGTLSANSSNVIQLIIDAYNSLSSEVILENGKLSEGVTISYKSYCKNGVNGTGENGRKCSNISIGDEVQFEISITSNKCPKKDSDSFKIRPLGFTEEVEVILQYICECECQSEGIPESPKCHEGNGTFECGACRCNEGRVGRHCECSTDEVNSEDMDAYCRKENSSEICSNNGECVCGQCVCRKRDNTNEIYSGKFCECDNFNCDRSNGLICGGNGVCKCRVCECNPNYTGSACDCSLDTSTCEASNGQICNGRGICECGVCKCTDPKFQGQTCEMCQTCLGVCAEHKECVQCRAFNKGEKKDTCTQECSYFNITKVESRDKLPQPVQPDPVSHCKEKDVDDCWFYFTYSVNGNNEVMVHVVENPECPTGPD
Chain of mouse α11β1 (P61622 23-1141 limits assumed): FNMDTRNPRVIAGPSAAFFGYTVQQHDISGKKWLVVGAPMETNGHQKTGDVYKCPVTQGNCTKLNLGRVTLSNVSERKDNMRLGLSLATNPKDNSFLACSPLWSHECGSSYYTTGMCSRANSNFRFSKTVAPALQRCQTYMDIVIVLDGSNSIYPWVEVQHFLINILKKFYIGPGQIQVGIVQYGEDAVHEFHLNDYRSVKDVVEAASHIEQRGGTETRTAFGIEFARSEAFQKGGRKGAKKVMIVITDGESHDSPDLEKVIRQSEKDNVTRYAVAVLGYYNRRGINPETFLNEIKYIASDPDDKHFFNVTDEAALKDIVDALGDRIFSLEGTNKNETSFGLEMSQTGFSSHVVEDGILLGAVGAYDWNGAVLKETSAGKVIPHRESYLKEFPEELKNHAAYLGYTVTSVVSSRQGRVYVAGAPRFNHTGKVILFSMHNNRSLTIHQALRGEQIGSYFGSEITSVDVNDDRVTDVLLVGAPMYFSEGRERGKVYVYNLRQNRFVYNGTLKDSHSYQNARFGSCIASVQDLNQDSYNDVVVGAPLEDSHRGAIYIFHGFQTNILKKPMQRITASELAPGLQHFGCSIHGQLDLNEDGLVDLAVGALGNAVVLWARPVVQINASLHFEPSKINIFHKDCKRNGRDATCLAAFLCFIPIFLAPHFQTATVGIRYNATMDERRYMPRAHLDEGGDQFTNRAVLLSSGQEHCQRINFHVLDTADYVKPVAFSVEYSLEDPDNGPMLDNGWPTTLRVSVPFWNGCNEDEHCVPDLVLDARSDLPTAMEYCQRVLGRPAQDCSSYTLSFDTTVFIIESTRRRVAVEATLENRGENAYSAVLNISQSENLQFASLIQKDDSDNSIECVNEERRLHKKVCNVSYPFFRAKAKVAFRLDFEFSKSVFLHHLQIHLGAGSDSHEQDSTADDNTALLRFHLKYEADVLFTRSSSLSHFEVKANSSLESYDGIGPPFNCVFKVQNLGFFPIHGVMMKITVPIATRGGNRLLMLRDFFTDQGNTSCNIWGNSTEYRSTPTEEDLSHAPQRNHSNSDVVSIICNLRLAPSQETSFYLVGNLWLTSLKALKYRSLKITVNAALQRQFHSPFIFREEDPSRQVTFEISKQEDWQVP
Chain of mouse α11β1 (P09055 21-728 partner limits assumed): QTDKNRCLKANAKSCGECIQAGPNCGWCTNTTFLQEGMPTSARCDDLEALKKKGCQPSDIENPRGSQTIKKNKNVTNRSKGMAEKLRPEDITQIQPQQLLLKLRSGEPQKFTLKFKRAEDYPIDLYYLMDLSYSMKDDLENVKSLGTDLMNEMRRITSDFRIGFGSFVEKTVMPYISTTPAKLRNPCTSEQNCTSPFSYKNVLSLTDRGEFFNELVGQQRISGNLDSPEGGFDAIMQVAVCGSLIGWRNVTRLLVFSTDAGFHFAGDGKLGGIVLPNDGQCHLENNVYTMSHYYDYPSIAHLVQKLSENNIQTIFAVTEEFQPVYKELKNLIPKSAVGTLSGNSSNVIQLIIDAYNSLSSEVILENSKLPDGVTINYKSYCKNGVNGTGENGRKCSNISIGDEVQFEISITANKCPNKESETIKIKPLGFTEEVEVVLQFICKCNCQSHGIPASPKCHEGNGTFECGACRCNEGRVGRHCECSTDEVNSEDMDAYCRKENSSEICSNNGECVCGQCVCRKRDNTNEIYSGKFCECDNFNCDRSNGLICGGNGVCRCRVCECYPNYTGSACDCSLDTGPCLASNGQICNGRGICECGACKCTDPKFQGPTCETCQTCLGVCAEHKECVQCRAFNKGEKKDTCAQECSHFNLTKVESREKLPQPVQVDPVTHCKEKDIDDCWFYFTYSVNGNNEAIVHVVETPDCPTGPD

Molecule | Human α11β1 ELISA (human α11β1) | Murine α11β1 ELISA (mouse α11β1) | Inhibition of CHO-K1 adhesion to collagen [1] | MF FACS (myofibroblasts (MF)) | HPF FACS [2] | I Domain binding (I domain of α11β1) | binding to I domain of α11β1 (high, medium, low) (I domain of α11β1) | binding to mouse α11β1 (mouse α11β1) | inhibition of cell adhesion to type I collagen [1] | I-domain binder (I domain of α11β1)
B1 | Yes | Yes | No | Yes | No | No | – | – | – | –
B2 | Yes | No | Yes | – | – | No | medium | – | – | –
B3 | Yes | No | No | – | – | No | low | – | – | –
B4 | Yes | Yes | Yes | Yes | No | Yes | high | cross-reacts with mouse α11β1 | strongly inhibited cell adhesion | found to be an I-domain binder
B5 | Yes | No | Yes | – | – | No | – | – | – | –
B6 | Yes | No | No | Yes | No | No | – | – | did not block cell adhesion | –
B7 | Yes | No | No | Yes | No | No | – | – | did not block cell adhesion; also recorded: had effect on ligand binding | –
B8 | Yes | Yes | Yes | – | – | No | – | – | strongly inhibited cell adhesion; also recorded: inhibited cell adhesion | not found to be an I-domain binder; also recorded: neither of the antibodies was found to be an I-domain binder
